Patent US20060287509A1 (University of California, published 2006)

Key:
[1] = molecular target: T1, c-erbB-2 ECD with a Ser-Gly-His6 C-terminal fusion (UniProt P04626 23-652); test: from SPR (BIAcore) Kd values
T1 construct: extracellular domain; expressed from CHO cells, IMAC purified; coupled to a CM5 chip, adsorbed to polystyrene, or biotinylated and captured on avidin; also called c-erbB-2 extracellular domain; biotinylated c-erbB-2 ECD

[2] = molecular target: T1, c-erbB-2 ECD with a Ser-Gly-His6 …; test: competition ELISA: sFv preincubated with soluble ECD (0-100 nM), free sFv read on immobilized ECD
[3] = molecular target: T2, c-erbB-2 expressed on cells (SK-OV-3, SK-BR-3) (UniProt P04626 23-1255, limits assumed); test: Scatchard after radioiodination, SK-OV-3 cells
T2 construct: whole, on cells; also called native c-erbB-2 expressed on cells

[4] = molecular target: T1, c-erbB-2 ECD with a Ser-Gly-His6 …; test: SPR (BIAcore)
[5] = molecular target: T2, c-erbB-2 expressed on cells (SK-OV-3, …); test: FACS, biotinylated sFv on SK-OV-3 cells
[6] = molecular target: T1, c-erbB-2 ECD with a Ser-Gly-His6 …; test: SPR (BIAcore); remark: listed apart in the source
[7] = molecular target: c-erbB-2 ECD with a Ser-Gly-His6 C-terminal fusion (UniProt P04626); test: SPR (BIAcore)
[8] = molecular target: c-erbB-2 ECD with a Ser-Gly-His6 C-terminal fusion (UniProt P04626); test: from SPR (BIAcore) Kd values

B1: C6-9L1 (scFv)
chain: QVQLLQSGAELKKPGESLKISCKGSGYSFTSYWIAWVRQMPGKGLEYMGLIYPGDSDTKYSPSFQGQVTISVDKSVSTAYLQWSSLKPSDSAVYFCARHDVGYCSSSNCAKWPEYFQHWGQGTLVTVSSGGGGSGGGGSGGGGSQSVLTQPPSVSGAPGQWVTISCSGSSSNIGNNYVSWYQQLPGTAPKLLIYDNNKRPSGVPDRFSGSQSGTSASLAISGLRSEDEADYYCASWDYTLSGWVFGGGTKLTVLG
ΔΔGI [1]: 0.42 kcal/mol

B2: C6-12L1 (scFv)
chain: QVQLLQSGAELKKPGESLKISCKGSGYSFTSYWIAWVRQMPGKGLEYMGLIYPGDSDTKYSPSFQGQVTISVDKSVSTAYLQWSSLKPSDSAVYFCARHDVGYCSSSNCAKWPEYFQHWGQGTLVTVSSGGGGSGGGGSGGGGSQSVLTQPPSVSGAPGQWVTISCSGSSSNIGNNYVSWYQQLPGTAPKLLIYDNNKRPSGVPDRFSGSQSGTSASLAISGLRSEDEADYYCAAWDYSRSGWVFGGGTKLTVLG
ΔΔGI [1]: -0.18 kcal/mol

B3: C6VLF (scFv)
chain: QVQLLQSGAELKKPGESLKISCKGSGYSFTSYWIAWVRQMPGKGLEYMGLIYPGDSDTKYSPSFQGQVTISVDKSVSTAYLQWSSLKPSDSAVYFCARHDVGYCSSSNCAKWPEYFQHWGQGTLVTVSSGGGGSGGGGSGGGGSQSVLTQPPSMSAAPGQKVTISCSGSSSNIGNNYVSWYQQFPGTAPKLLIHDNNKRPSGIPDRISGSKSGTSASLAISGLQSDDEADYYCAAWDDSLNGWVFGGGTKLTVLG
IC50 [2]: 7.5 nM | Kd [3]: 79 nM

B4: C6VLD (scFv)
chain: QVQLLQSGAELKKPGESLKISCKGSGYSFTSYWIAWVRQMPGKGLEYMGLIYPGDSDTKYSPSFQGQVTISVDKSVSTAYLQWSSLKPSDSAVYFCARHDVGYCSSSNCAKWPEYFQHWGQGTLVTVSSGGGGSGGGGSGGGGSQSVLTQPPSVSAAPGQKVTISCSGTNSNIGNNYVSWYQQLPGTAPKLLIYTNDQRPSGVPDRFSGSKSGTSASLAISGLQSEDEADYYCAAWDDSLNGWMFGGGTKLTVLG
IC50 [2]: 5.8 nM | Kd [3]: 26 nM

B5: C6-B47D6 (scFv)
scFv: QVQLLQSGAELKKPGESLKISCKGSGYSFTSYWIAWVRQMPGKGLEYMGLIYPGDSDTKYSPSFQGQVTISVDKSVSTAYLQWSSLKPSDSAVYFCARHDVGYCTDRSCAKWPEWMYPWGQGTLVTVSSGGGGSGGGGSGGGGSQSVLTQPPSVSAAPGQKVTISCSGSSSNIGNNYVSWYQQLPGTAPKLLIYGHTNRPAGVPDRFSGSKSGTSASLAISGFRSEDEADYYCASWDYTLSGWVFGGGTKLTVLG
notes: C6MH3-B47 with the library D residues of C6MH3-D6
ΔΔGI [1]: 0.17 kcal/mol

B6: C6-B1D3 (scFv)
chain: QVQLLQSGAELKKPGESLKISCKGSGYSFTSYWIAWVRQMPGKGLEYMGLIYPGDSDTKYSPSFQGQVTISVDKSVSTAYLQWSSLKPSDSAVYFCARHDVGYCTDRTCAKWPEWLDNWGQGTLVTVSSGGGGSGGGGSGGGGSQSVLTQPPSVSAAPGQKVTISCSGSSSNIGNNYVSWYQQLPGTAPKLLIYGHTNRPAGVPDRFSGSKSGTSASLAISGFRSEDEADYYCASWDYTLSGWVFGGGTKLTVLG
fold lower Kd than wt C6.5 [4]: 1230 fold | ΔΔGI [1]: -0.53 kcal/mol

B7: C6-B1D2 (scFv)
chain: QVQLLQSGAELKKPGESLKISCKGSGYSFTSYWIAWVRQMPGKGLEYMGLIYPGDSDTKYSPSFQGQVTISVDKSVSTAYLQWSSLKPSDSAVYFCARHDVGYCTDRTCAKWPEWLGVWGQGTLVTVSSGGGGSGGGGSGGGGSQSVLTQPPSVSAAPGQKVTISCSGSSSNIGNNYVSWYQQLPGTAPKLLIYGHTNRPAGVPDRFSGSKSGTSASLAISGFRSEDEADYYCASWDYTLSGWVFGGGTKLTVLG
ΔΔGI [1]: -0.07 kcal/mol

B8: C6-B1D1 (scFv)
chain: QVQLLQSGAELKKPGESLKISCKGSGYSFTSYWIAWVRQMPGKGLEYMGLIYPGDSDTKYSPSFQGQVTISVDKSVSTAYLQWSSLKPSDSAVYFCARHDVGYCTDRTCAKWPEWLHVWGQGTLVTVSSGGGGSGGGGSGGGGSQSVLTQPPSVSAAPGQKVTISCSGSSSNIGNNYVSWYQQLPGTAPKLLIYGHTNRPAGVPDRFSGSKSGTSASLAISGFRSEDEADYYCASWDYTLSGWVFGGGTKLTVLG
ΔΔGI [1]: -0.61 kcal/mol

B9: C6-B1D5 (scFv)
chain: QVQLLQSGAELKKPGESLKISCKGSGYSFTSYWIAWVRQMPGKGLEYMGLIYPGDSDTKYSPSFQGQVTISVDKSVSTAYLQWSSLKPSDSAVYFCARHDVGYCTDRTCAKWPEWMQMWGQGTLVTVSSGGGGSGGGGSGGGGSQSVLTQPPSVSAAPGQKVTISCSGSSSNIGNNYVSWYQQLPGTAPKLLIYGHTNRPAGVPDRFSGSKSGTSASLAISGFRSEDEADYYCASWDYTLSGWVFGGGTKLTVLG
ΔΔGI [1]: -0.4 kcal/mol

B10: C6MH3-B1 (scFv)
scFv: QVQLLQSGAELKKPGESLKISCKGSGYSFTSYWIAWVRQMPGKGLEYMGLIYPGDSDTKYSPSFQGQVTISVDKSVSTAYLQWSSLKPSDSAVYFCARHDVGYCTDRTCAKWPEYFQHWGQGTLVTVSSGGGGSGGGGSGGGGSQSVLTQPPSVSAAPGQKVTISCSGSSSNIGNNYVSWYQQLPGTAPKLLIYGHTNRPAGVPDRFSGSKSGTSASLAISGFRSEDEADYYCASWDYTLSGWVFGGGTKLTVLG
notes: C6ML3-9 with this VH CDR3; C-terminal His6; also called C6MNH3-B1
half life (t1/2) on the cell surface [5]: 1.7 h

B11: C6ML3-7 (scFv)
scFv: QVQLLQSGAELKKPGESLKISCKGSGYSFTSYWIAWVRQMPGKGLEYMGLIYPGDSDTKYSPSFQGQVTISVDKSVSTAYLQWSSLKPSDSAVYFCARHDVGYCSSSNCAKWPEYFQHWGQGTLVTVSSGGGGSGGGGSGGGGSQSVLTQPPSVSAAPGQKVTISCSGSSSNIGNNYVSWYQQLPGTAPKLLIYGHTNRPAGVPDRFSGSKSGTSASLAISGFRSEDEADYYCAAWDYAVSGWVFGGGTKLTVLG
notes: C6.5 with this VL CDR3; C-terminal myc and His6 tags
fold increase in affinity vs wild-type sFv (C6.5) [4]: 6 fold | kon [6]: 650000 M⁻¹ s⁻¹

B12: C6-B1L1 (scFv, part only; not given: linker and VL, part only)
scFv, part: QVQLLQSGAELKKPGSLKISCKGSGYSFTSWIAWVRQMPGKGLEYGLIYPGDSDTKYSPSQGQVTISVDKSVSTALQWSSLKPSDSAVYFARHDVGYCHDVGYCTDRTCAKWPYFQHTVS
Kd [7]: 0.63 nM | Kd (C6.5)/Kd (mut) [7]: 25 | Kd (parent)/Kd (mut) [7]: 0.19 | koff [7]: 0.00024 s⁻¹ | kon [7]: 380000 M⁻¹ s⁻¹ | ΔΔGI [8]: 0.43 kcal/mol

B13: C6-B47L1 (scFv, part only; not given: linker and VL, part only)
scFv, part: QVQLLQSGAELKKPGSLKISCKGSGYSFTSWIAWVRQMPGKGLEYGLIYPGDSDTKYSPSQGQVTISVDKSVSTALQWSSLKPSDSAVYFARHDVGYCHDVGYCTDRSCAKWPYFQHTVS
Kd [7]: 0.6 nM | Kd (C6.5)/Kd (mut) [7]: 27 | Kd (parent)/Kd (mut) [7]: 0.18 | koff [7]: 0.00018 s⁻¹ | kon [7]: 300000 M⁻¹ s⁻¹ | ΔΔGI [8]: 0.45 kcal/mol

B14: C6VLE (scFv)
chain: QVQLLQSGAELKKPGESLKISCKGSGYSFTSYWIAWVRQMPGKGLEYMGLIYPGDSDTKYSPSFQGQVTISVDKSVSTAYLQWSSLKPSDSAVYFCARHDVGYCSSSNCAKWPEYFQHWGQGTLVTVSSGGGGSGGGGSGGGGSQSVLTQPPSVSAAAGQKVTISCSGSSSSIGRNYVSWNQQLPGTAPKLLIWRNNQRPSGVPDRFSGSKSGTSASLAISGVRSEDEADYYCASWDNSLSGWVFGGGTKLTVLG
IC50 [2]: 2.8 nM | Kd [3]: 71 nM
